From the RNAGym collection of RNA variant scans (doi:10.1021/acssynbio.7b00057)

B1: Pistol ribozyme (parent)
chain: GGGUCGUUGUUCCAUAAUCGCGUGGAUAUGGCACGCAAGUUUCUACCGGGCACCGUAAAUGUCCGACUGGAGCCGUUCGGGCGGCUAUAAACAGACCUCAGGCCCGAAGCGUGGCGGCACCUGCCGCCGGUGGUAAAAAAGAUCGGAAGAGCACACGUCU

Variants of: B1
Assay: aptazyme ON/OFF ratio, guanine; higher = stronger switching; co-transcriptional cleavage with and without guanine

Variant	aptazyme ON/OFF ratio
U7A U8C U10G C12U C13G	1.14
U7A U8C U10G C12U C13U	1.34
U7A U8C U10G C12U C13A	1.21
U7A U8C G9U U11A	1.19
U7A U8C G9U U11C	1.1
U7A U8C G9U U11G	1.29
U7A U8C U10A U11G C12U	1.27
U7A U8C U10A U11G C12G	1.32
U7A U8C U10A U11G C12A	1.1
U7A U8C U10A U11C C12G C13G	1.27
U7A U8C U10A U11C C12G C13A	1.08
U7A U8C U10A U11C C12G C13U	1.13
U7A U8C G9U U10C C12G C13U	1.51
U7A U8C G9U U10C C12G C13A	1.13
U7A U8C G9U U10C C12G C13G	1.33
U7A U8C G9U U10C U11C C12G C13U	1.04
U7A U8C G9U U10C U11C C12G C13A	1.04
U7A U8C G9U U10C U11C C12G C13G	1.22
U7A U8C G9U U10C C12A C13A	1.14
U7A U8C G9U U10C C12A C13U	1.26
U7A U8C G9U U10C C12A C13G	1.29

Variant	aptazyme ON/OFF ratio
U7A U8C G9U U10G U11G C12A	1.18
U7A U8C G9U U10G U11G C12U	1.25
U7A U8C G9U U10G U11G C12G	1.22
U7A U8C U10G U11A C12A	1.42
U7A U8C G9U U11A C13U	1.28
U7A U8C G9U U11A C13A	1.13
U7A U8C G9U U11A C13G	1.07
U7A U8C U10A U11A C12A	1.17
U7A U8C U10A U11A C12U	1.18
U7A U8C U10A U11A C12G	1.23
U7A U8C G9U U10G U11G C12U C13U	1.16
U7A U8C G9U U10G U11G C12U C13A	1.07
U7A U8C G9U U10G U11G C12U C13G	1.11
U7A U8C G9U U10G U11C C12G	1.32
U7A U8C G9U U10G U11C C12A	1.25
U7A U8C G9U U10G U11C C12U	1.12
U7A U8C G9U U11C C12G C13G	1.05
U7A U8C G9U U11C C12G C13A	1.13
U7A U8C G9U U11C C12G C13U	1.18
U7A U8C G9U U10G C12A C13A	1.45
U7A U8C G9U U10G C12A C13U	1.07

Variant	aptazyme ON/OFF ratio
U7A U8C G9U U10G C12A C13G	1.18
U7A U8C G9U U10C U11A C12U C13A	1.13
U7A U8C G9U U10C U11A C12U C13G	1.09
U7A U8C G9U U10C U11A C12U C13U	1.15
U7A U8C U10C U11C C12A C13G	1.16
U7A U8C U10C U11C C12A C13A	1.09
U7A U8C U10C U11C C12A C13U	1.16
U7A U8C G9U U10C U11C C12A	1.08
U7A U8C G9U U10C U11C C12U	1.06
U7A U8C G9U U10C U11C C12G	1.07
U7A U8C G9U U10C C13U	1.19
U7A U8C G9U U10C C13G	1.06
U7A U8C G9U U10C C13A	1.09
U7A U8C U10C U11G C12A	1.2
U7A U8C U10C U11G C12U	1.3
U7A U8C U10C U11G C12G	1.25
U7A U8C U10A U11C C12G	1.1
U7A U8C U10A U11C C12U	1.03
U7A U8C U10A U11C C12A	1.09
U7A U8C U10C U11A C13G	1.16
U7A U8C U10C U11A C13A	1.15

Variant	aptazyme ON/OFF ratio
U7A U8C U10C U11A C13U	1.17
U7A U8C U10C U11C C13G	1.17
U7A U8C U10C U11C C13U	1.01
U7A U8C U10C U11C C13A	1.03
U7A U8C G9U U10G C12A	1.53
U7A U8C G9U U10G C12G	1.13
U7A U8C G9U U10G C12U	1.17
U7A U8C G9U U10A U11G C12G C13A	1.2
U7A U8C G9U U10A U11G C12G C13U	1.18
U7A U8C G9U U10A U11G C12G C13G	1.26
U7A U8C U10A U11A C12U C13G	1.33
U7A U8C U10A U11A C12U C13A	1.18
U7A U8C U10A U11A C12U C13U	1.17
U7A U8C G9U U10G U11C C12G C13G	1.17
U7A U8C G9U U10G U11C C12G C13A	1.22
U7A U8C G9U U10G U11C C12G C13U	1.21
U7A U8C G9U U10G C12U C13G	1.72
U7A U8C G9U U10G C12U C13U	1.14
U7A U8C G9U U10G C12U C13A	1.61
U7A U8C G9U U10G U11C C12A C13A	1.14
